From the supplement of paper PMC6757056
± gives the standard deviation of the averaged measurements.

B1: library; a variant is named by its letters at N, in order (parent)
chain: GCUGUCACCGAGAAACUGUGAAGUAUAUCUUAAACCUGGGCACUUAAAAGAUAUAUGGAGUUAGUAGUGCAACCUGCUCGGUCUGAUGAGUCCNNNNNNGGACGAAACAGC

Legend:
[1] = variants of: B1; test: FACS-Seq fitted mean relative fluorescence mCherry/BFP without ligand (log10 relative fluorescence); HEK293T; ligand: cyclic di-GMP (c-di-GMP-II aptamer); higher = higher reporter protein expression; conditions: ligand present: no
Method in brief: (§1)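 HEK293T libraries were lentivirally transduced with an mCherry reporter carrying the ribozyme switch and an EF1α-BFP marker, enriched, and incubated for 48 h with or without ligand before sorting into 6 bins by mCherry/BFP. Genomic DNA from each bin was PCR-amplified, barcoded and sequenced on MiSeq. Fluorescence is the fitted normal mean of the bin counts. The fit used log10(mCherry/BFP), and means were scaled to five spiked-in control ribozymes.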

[2] = variants of: B1; test: normalized RNA/DNA level without ligand (relative to sTRSVctl = 100) (log10 (% of sTRSVctl)); HEK293T; ligand: cyclic di-GMP (c-di-GMP-II aptamer); higher = less ribozyme self-cleavage, higher mRNA level; conditions: reporter: mCherry (pCS4076), ligand present: no
Experimental: (§2)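 Hammerhead (sTRSV) ribozyme switch libraries with a ligand aptamer grafted on stem I and a randomized N4-6 loop II, cloned into the 3' UTR of mCherry and transiently transfected into HEK293T cells; RNA-Seq 72 h post transfection with ligand added 1 h before transfection; RNA read count / plasmid DNA read count normalized to the non-cleaving sTRSVctl (x100), log10; sequences with >100 DNA reads. FACS-Seq: lentiviral library sorted into 6 bins after 48 h ligand, log-normal fit mean of mCherry/BFP scaled to controls. Printed sequences are partial switch sequences.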

[3] = variants of: B1; test: FACS-Seq fitted mean relative fluorescence mCherry/BFP with ligand (log10 relative fluorescence); HEK293T; ligand: cyclic di-GMP (c-di-GMP-II aptamer); ligand concentration (+) FACS-Seq: 1 mM; higher = higher reporter protein expression; conditions: ligand present: yes
Method in brief: as §1

[4] = variants of: B1; test: normalized RNA/DNA level with ligand (relative to sTRSVctl = 100) (log10 (% of sTRSVctl)); HEK293T; ligand: cyclic di-GMP (c-di-GMP-II aptamer); ligand concentration (+) RNA-Seq: 1 mM; higher = less ribozyme self-cleavage, higher mRNA level; conditions: reporter: mCherry (pCS4076), ligand present: yes
Experimental: as §2

Row | Variant | FACS-Seq fitted mean (log10) [1] | normalized RNA/DNA level without ligand (log10) [2] | FACS-Seq fitted mean (log10) [3] | normalized RNA/DNA level with ligand (log10) [4]
1 | CCCUCC | -0.844 ± 0.018 | 1.78 ± 0.029 | -0.75619 ± 0.00069 | 1.89 ± 0.045
2 | CCCUCA | -0.416 ± 0.038 | 1.58 ± 0.039 | -0.195 ± 0.06 | 1.73 ± 0.17
3 | CCCAGA | -0.192 ± 0.068 | 1.55 ± 0.021 | 0.0209 ± 0.061 | 1.74 ± 0.078
4 | GCCGGU | 0.00404 ± 0.21 | 1.63 ± 0.03 | 0.3204 ± 0.0024 | 1.79 ± 0.087
5 | GCCGCU | -0.109 ± 0.1 | 1.72 ± 0.015 | 0.0767 ± 0.02 | 1.92 ± 0.09
6 | GCGAUC | -0.51 ± 0.012 | 1.16 ± 0.039 | -0.206 ± 0.014 | 1.34 ± 0.15
7 | GCGAUA | -0.474 ± 0.0058 | 1.44 ± 0.11 | -0.154 ± 0.057 | 1.61 ± 0.12
8 | CCACUU | -0.246 ± 0.072 | 1.5 ± 0.069 | -0.0246 ± 0.1 | 1.69 ± 0.078
9 | CCACUA | -0.725 ± 0.038 | 1.43 ± 0.13 | -0.348 ± 0.019 | 1.66 ± 0.067
10 | ACAUGG | -0.46 ± 0.077 | 1.44 ± 0.11 | -0.227 ± 0.031 | 1.61 ± 0.11
11 | ACGCUC | -0.914 ± 0.014 | 1.67 ± 0.02 | -0.852 ± 0.057 | 1.82 ± 0.16
12 | GCGAAU | -0.502 ± 0.029 | 1.45 ± 0.057 | -0.149 ± 0.079 | 1.64 ± 0.14
13 | UCAUUU | -0.43 ± 0.036 | 1.637 ± 0.0076 | -0.178 ± 0.038 | 1.78 ± 0.14
14 | UCAUUA | -0.996 ± 0.055 | 1.5 ± 0.017 | -0.732 ± 0.049 | 1.73 ± 0.15
15 | UCAGCG | -0.403 ± 0.12 | 1.83 ± 0.077 | -0.141 ± 0.05 | 1.88 ± 0.099
16 | ACCCGC | -0.436 ± 0.15 | 1.75 ± 0.018 | -0.0881 ± 0.013 | 1.85 ± 0.099
17 | ACAGUU | -0.579 ± 0.027 | 1.32 ± 0.13 | -0.312 ± 0.09 | 1.5 ± 0.073
18 | GCGGAA | -0.527 ± 0.013 | 1.33 ± 0.21 | -0.19 ± 0.061 | 1.54 ± 0.1
19 | ACCAUA | -0.294 ± 0.15 | 1.51 ± 0.065 | 0.0129 ± 0.043 | 1.71 ± 0.11
20 | CCCGAA | -0.464 ± 0.055 | 1.39 ± 0.023 | -0.0882 ± 0.039 | 1.64 ± 0.13
21 | ACCUGA | -0.424 ± 0.033 | 1.52 ± 0.032 | -0.159 ± 0.035 | 1.72 ± 0.1
22 | GCAGGU | -0.184 ± 0.0055 | 1.66 ± 0.054 | 0.0315 ± 0.013 | 1.79 ± 0.15
23 | GCCCCA | -0.109 ± 0.025 | 1.72 ± 0.024 | 0.138 ± 0.041 | 1.86 ± 0.085
24 | GCCCCU | 0.163 ± 0.17 | 1.761 ± 0.0048 | 0.336 ± 0.019 | 1.89 ± 0.077

Row | Variant | FACS-Seq fitted mean (log10) [1] | normalized RNA/DNA level without ligand (log10) [2] | FACS-Seq fitted mean (log10) [3] | normalized RNA/DNA level with ligand (log10) [4]
25 | UCCAGC | -0.739 ± 0.051 | 1.66 ± 0.059 | -0.609 ± 0.015 | 1.84 ± 0.15
26 | UCCAGA | -0.246 ± 0.071 | 1.631 ± 0.014 | 0.0947 ± 0.062 | 1.82 ± 0.081
27 | ACGAUU | -0.694 ± 0.056 | 1.2 ± 0.13 | -0.341 ± 0.036 | 1.41 ± 0.19
28 | ACGAUG | -0.381 ± 0.017 | 1.55 ± 0.084 | -0.168 ± 0.022 | 1.72 ± 0.14
29 | ACGAGU | -0.508 ± 0.033 | 1.43 ± 0.14 | -0.229 ± 0.13 | 1.7 ± 0.11
30 | ACGAGA | -0.604 ± 0.02 | 1.29 ± 0.12 | -0.453 ± 0.01 | 1.45 ± 0.067
31 | ACACGA | -0.4507 ± 0.0033 | 1.37 ± 0.16 | -0.174 ± 0.061 | 1.55 ± 0.11
32 | ACACGG | -0.501 ± 0.0065 | 1.53 ± 0.084 | -0.192 ± 0.029 | 1.69 ± 0.1
33 | GCCGAA | -0.291 ± 0.03 | 1.45 ± 0.11 | -0.0327 ± 0.018 | 1.72 ± 0.091
34 | GCCGAC | -0.43 ± 0.062 | 1.48 ± 0.13 | -0.145 ± 0.015 | 1.67 ± 0.089
35 | GCCGAU | -0.47 ± 0.078 | 1.55 ± 0.034 | -0.231 ± 0.064 | 1.74 ± 0.1
36 | UCCAAA | -0.284 ± 0.0034 | 1.57 ± 0.076 | 0.111 ± 0.079 | 1.75 ± 0.12
37 | CCCUAG | -0.7711 ± 0.0036 | 1.65 ± 0.031 | -0.624 ± 0.025 | 1.84 ± 0.13
38 | ACGAAA | -0.618 ± 0.032 | 1.35 ± 0.1 | -0.313 ± 0.013 | 1.52 ± 0.11
39 | ACGAAG | -0.359 ± 0.056 | 1.42 ± 0.13 | 0.0516 ± 0.11 | 1.63 ± 0.088
40 | UCAGAU | -0.378 ± 0.029 | 1.49 ± 0.067 | -0.0266 ± 0.08 | 1.67 ± 0.078
41 | ACAUAG | -0.486 ± 0.035 | 1.41 ± 0.11 | -0.109 ± 0.082 | 1.66 ± 0.05
42 | ACAUAC | -0.256 ± 0.19 | 1.57 ± 0.056 | -0.161 ± 0.28 | 1.76 ± 0.097
43 | ACAUAA | -0.3987 ± 0.0024 | 1.39 ± 0.12 | -0.112 ± 0.0021 | 1.63 ± 0.063
44 | UCACUU | -0.404 ± 0.091 | 1.611 ± 0.0095 | -0.0521 ± 0.15 | 1.77 ± 0.14
45 | ACCAAA | -0.438 ± 0.056 | 1.49 ± 0.12 | -0.0508 ± 0.12 | 1.71 ± 0.1
46 | ACCAAC | -0.0269 ± 0.12 | 1.6 ± 0.048 | 0.111 ± 0.07 | 1.76 ± 0.085
47 | ACCAAG | -0.4336 ± 0.0033 | 1.54 ± 0.1 | -0.172 ± 0.048 | 1.71 ± 0.09
48 | CCCCUG | -0.147 ± 0.12 | 1.69 ± 0.045 | 0.154 ± 0.1 | 1.84 ± 0.097

Row | Variant | FACS-Seq fitted mean (log10) [1] | normalized RNA/DNA level without ligand (log10) [2] | FACS-Seq fitted mean (log10) [3] | normalized RNA/DNA level with ligand (log10) [4]
49 | CCCCUU | -0.25 ± 0.04 | 1.65 ± 0.019 | 0.125 ± 0.14 | 1.84 ± 0.12
50 | CCCCUA | -0.244 ± 0.03 | 1.56 ± 0.054 | 0.111 ± 0.091 | 1.74 ± 0.093
51 | ACGCAG | -0.51 ± 0.13 | 1.677 ± 0.0051 | -0.377 ± 0.0065 | 1.81 ± 0.094
52 | CCCCCA | -0.0821 ± 0.078 | 1.71 ± 0.046 | 0.187 ± 0.091 | 1.83 ± 0.14
53 | CCGAAG | -0.589 ± 0.031 | 1.31 ± 0.081 | -0.24 ± 0.0033 | 1.51 ± 0.12
54 | CCGAAA | -0.628 ± 0.032 | 1.31 ± 0.12 | -0.282 ± 0.0032 | 1.53 ± 0.1
55 | GCGCAU | -0.0572 ± 0.14 | 1.66 ± 0.058 | 0.0686 ± 0.025 | 1.8 ± 0.11
56 | CCCGGU | -0.55 ± 0.093 | 1.724 ± 0.003 | -0.114 ± 0.093 | 1.87 ± 0.11
57 | GCCAUA | 0.0302 ± 0.039 | 1.55 ± 0.05 | 0.269 ± 0.026 | 1.72 ± 0.069
58 | GCCAUU | -0.372 ± 0.0056 | 1.58 ± 0.016 | -0.161 ± 0.13 | 1.78 ± 0.13
59 | UCGAAA | -0.535 ± 0.0031 | 1.32 ± 0.069 | -0.158 ± 0.043 | 1.58 ± 0.12
60 | CCGCAC | -0.121 ± 0.13 | 1.6849 ± 0.0016 | 0.131 ± 0.16 | 1.85 ± 0.11
61 | CCAGUA | -0.229 ± 0.044 | 1.5 ± 0.092 | 0.134 ± 0.047 | 1.73 ± 0.12
62 | CCAGUU | 0.0604 ± 0.26 | 1.69 ± 0.04 | 0.36 ± 0.0063 | 1.87 ± 0.077
63 | CCAGUC | -0.422 ± 0.072 | 1.68 ± 0.023 | -0.0312 ± 0.045 | 1.83 ± 0.077
64 | CCGACA | -0.323 ± 0.017 | 1.56 ± 0.068 | -0.142 ± 0.068 | 1.74 ± 0.11
65 | UCAGUA | -0.6 ± 0.076 | 1.33 ± 0.2 | -0.299 ± 0.076 | 1.59 ± 0.082
66 | UCAGUG | -0.446 ± 0.02 | 1.669 ± 0.0062 | -0.142 ± 0.12 | 1.83 ± 0.15
67 | UCAGUC | -0.277 ± 0.12 | 1.697 ± 0.0098 | -0.0482 ± 0.1 | 1.85 ± 0.082
68 | CCAGGC | -1.034 ± 0.0013 | 1.636 ± 0.0075 | -0.924 ± 0.11 | 1.76 ± 0.15
69 | ACCAGU | -0.368 ± 0.064 | 1.602 ± 0.0077 | 0.00485 ± 0.036 | 1.8 ± 0.068
70 | GCCAGG | -0.568 ± 0.068 | 1.75 ± 0.071 | -0.429 ± 0.034 | 1.84 ± 0.087
71 | CCGCUU | -0.424 ± 0.011 | 1.557 ± 0.013 | -0.124 ± 0.0085 | 1.79 ± 0.076
